Data taken from the DeepSol protein solubility set.

Assay: soluble on expression in E. coli; label from the status in PepcDB or PDB records

Sequence	soluble on expression in E. coli
MGSDKIHHHHHHMSQRIGVIDMGTNTFHLLITDIVNDRPHTLVNEKSAVGLGKGGITKGFITEEAMDRALDTLKKFRVILDEHAVVHVIATGTSAVRSGSNKQVLIDRIKKEVNIDVEVIDGAREAELIFRGVQQAVPMEDHISLAMDIGGGSVEFIIGNKNEILWKQSFEIGGQRLIDRFHVHDPMREDDRVMMHNYFDEVLVPLEKAINTWRPTQLIGCSGTFDTLAEMNIQHHREKIALEKQTSYLLSLPDFNRLRKQLVASTRRERLAIAGMIELRADMVVVAICLIEHVLKLVSTNAITVSTYSLKEGVLYTMLDGVKVGS	not soluble
MGSDKIHHHHHHMSNLPLISVVIPTYGREEILRDSIVDVLNQDYPKYEVLVVDQSPKHKPEIETYLEEVAAAGKVKWFRLDWASLPGARNYAIRRASGEIILFIDDDVKLKPGFLAAHAKNYVQNPDVGSVAGRVFDRMKLGDSGGNLEIEYLPPEAMDPGVAWYHIDLVHTIKPQQVLTARGCNMSFRREIFTKHGLRFDERFRGSAVREESDFCLRLRQTGYKIWYDPEADLIHLGEETGGCHDISMRSLKYQFTFYHNHFLLGLKNLNFSQALRLYARLFDCHVLGRPPCHKSGSPIKIITRGIFYILGFFRALGSVIQSNWHDGQIYSRLDQESIIKSQESMVNS	not soluble
MDIKRYCPVTDSELPADHVYFKFRSEIEAAEAYLGLAISEGIKVRETREILDIIDTVYNSLSDPESKLNDFQEKRLNFTEEDWYDIKEKANNGNRWSLYMFLARSAVDSAVYWSYRMKETEEFKEIVKEEMISKLLKAGYVILRESLGEVRL	soluble
MSRGFALLGWLNPAQRQAVTAPCGHLCINAAAGTGKTTTVAARILWLQLVQDVPPEAILAVTFSRAARAHLLDRVEAFTRVLGAGGAVPTFTLHGLAYRILRIAIGAGETWLRPGFGVISVGRDRINPLLQEHAADLLGDLSDPWDLPTRVEQYSRALDAVRQGCADIEEGLPLEPDDLPDGVLYVPARIETPNLRKVWRRYNRMLRARNYLDYPGMVTEAILALYREGKTLQRARANLEYIIVDEYQDTSRAQEELIQLLVGERTSVTVVGDSDQAIYTFNGADIGNILHFAERILETGSALPVLEPVHLVENYRSSACILDAANRVLDRIHGPGRKQLVPYPGTVDEPVESYRRRNLEVVRVHAGSLDQAAFWAASEIARLVTEEGIEPSDIAVLVRKDTEHAPQGRAVRLALERLGIRAEEQERDPIRSSHVYEVVRDLCGDPDYYGEDIGDMIERIAAGEFRDALGDVTPDEATALLREAQAAGAEFAGEVVDFVFEQGAPDATPASLEGVQVRTIHSAKGLEFRVVFLMYLSDREFPHGAHPDVAEERRLYYVGLTRAQERLYVLGQPGVRNEDFFGAIDGSGVVTVHVEPWRDRSPSSEEAVDDETLRLIQEARRRQHDMFLRRP	soluble
MNTQILGLHHVTAMTSSAEKIYHFFTDILGLRLIKKTVNQDDIETYHLFFADDAGSPGTDMTFFDFPGLPKGTKGTNTISRTSFRVKDDATLDYWVSRFNEYAIDHGEIQERFGKKYLEFEDFDNQRYQLISDEKNQCVAAGTPWKKSNVPSEHALIGLGPAFVTVENYEHLQLVLTEVLGFKLIDAEGSFHLFEVGEGGNGASIIVEHREDLPAAQEGYGNVHHLALRVADEEALRFWIEKINRLEFPNSGFVERFYFKSEYFLAATHVLFELATDGPGFLEDETYEHAGEKLSLPPFLEPKRAGIEEFVRPFDTSDANVQRN	not soluble
MGSDKIHHHHHHMDKALLHFDNSYARDLEGFYAPWQAATAPAPRLLLLNQALAEELGLDSATLDDELGAAIFSGNQVPEGALPLAQAYAGHQFGHFSPQLGDGRALLLGELIDRHGRRRDMQLKGSGRTPFSRGGDGKAALGPVLREYVIGEAMHALGIPTTRALAAVTTGETVRRETWLPGAILTRIAASHIRVGTFQFFAARNENVRVKQLADYTIARHYPPLKGADNPYLELFAAVSAAQAALIARWMLVGFIHGVMNTDNMSIAGETIDYGPCAFMDNYDPETVFSSIDAHGRYAYAHQPLIAQWNLTRFAETLIDLVHPDPDEAARLLTEQLNEFPKLYTRHWLDGMRAKMGLATAEDGDLALAQALLSAMEGQNADFTQVFRGLSAAVRGDPAQVRAHFVNQAPFDLWLAQWQARLAHESATAEARAEAMDQVNPLYIPRNHKVEEALAAATLNQDLTPFKALLAVLERPFAERPGLESYTQPAPEDFGPFKTFCGT	not soluble
MDVYHDGACPEVKPVDNFDWSQYHGKWWEVAKYPSPNGKYGKCGWAEYTPEGKSVKVSRYDVIHGKEYFMEGTAYPVGDSKIGKIYHSRTVGGYTKKTVFNVLSTDNKNYIIGYSCRYDEDKKGHWDHVWVLSRSMVLTGEAKTAVENYLIGSPVVDSQKLVYSDFSEAACKVNNSNWSHPQFEK	soluble
RNQVEHEAKVSLAKSFGAGIAHEMRNPLSGLCTSIDVIQSVLPNKKAMGEKDQYVMSGEDVTLLREVSEDAMNIIHSGNETIDLLLTSIDENRVSRSSFKRYSAQSVVEKAIESFSYKRSTDRFAISFDARSEFDFLGSDTLLKYVMYNLFKNAFHHRSSDEFHIHVSMQSNDTANQIVVTDNGSGIAPDVIRHIFQDFYTTGKSGSYGLGLPFCKKVMRSFGGNIKCISQPGEWSQFTLTFPPITSDTVTEIKDELTKMKSILLVSNQDIIVQKMADISRFMGFDVTVLDVKSVFKKKEYEFEFDLIFVDVESLDVLENQLDRIESLLSFTEARVVYLFEHKPAQRAKKVGHDPIWVETQAWLLNTKATIERLLYDSTYISSTLPSAPL	not soluble
MVKLKVEDLEMDKIAPLAPEVSLKMAWNIMRDKNLKSIPVADGNNHLLGMLSTSNITATYMDIWDSNILAKSATSLDNILDTLSAEAQNINEERKVFPGKVVVAAMQAESLKEFISEGDIAIAGDRAEIQAELIELKVSLLIVTGGHTPSKEIIELAKKNNITVITTPHDSFTASRLIVQSLPVDYVMTKDNLVAVSTDDLVEDVKVTMSETRYSNYPVIDENNKVVGSIARFHLISTHKKKLEHHHHHHHH	soluble
MGASGRICTVVPVEDAGEAAMLALSSPTGCVELRLDFYPGDPGEALELLATRLHSPARVVVTLRSAGHGGLDRRARGERRAVLARLEDLAPEGWLVDYEVEDLHASSGCSGCIASSHPTTPPTPRRALEEAAVAERLGASAYKLVYPGVEPWEQAAAARLVAEAGGFATSFTLGPGTLASRLTALALGAPLVFGSHPRAPLDGVPQSSEIMELYLRMGLGES	not soluble
MRILDYDKVIERILEFIREKGNNGVVIGISGGVDSATVAYLATKALGKEKVLGLIMPYFENKDVEDAKLVAEKLGIGYKVINIKPIVDSFVENLELNLDRKGLGNIMSRTRMIMLYAHANSLGRIVLGTSNRSEFLTGYFTKWGDGASDYAPIINLYKTEVWEIAKRIGVPERIVKKKPSAGLWEGQTDEDELGISYNLLDEILWRMIDLKIGKEEIAKDLGIPLSLVERVEELIKKSEHKRRLPIGPSFEDLIVGP	soluble
MVCFASLFEEVSMHTCPLCHNQHTRHYFEDKHREYLQCEQCYLVFVNPDQRLDAETEKAHYDLHENNPEDIGYRRFLSRIADPITERISPQSNGIDFGCGPGPTLSLMLEEAGHNMALYDIYYHPDTAVLEKQYDFMTATEVIEHLYHPDVVWKQWLNLVKPGGWIGLMTKMVIDVEAFKSWHYKNDPTHVVFFSRDTFQFLAERDKLELEFIGNDVILLRKTQLEHHHHHH	soluble
MSLTRSTRNSIEFKVWGRHALFTDPLTKVGGEKCSYHVPTYEALKGIAKSIYWKPTLIWVIDEVRVMKRVRTQTKGTKPLEFGGGNSLAIYTFLADVEYQVRAHFEWNEHRPELQADRIDGKHYAIARRMLERGGRQDIFLGTRDCQGYIEPCEFGGGAGAHDEGSELAFGLMFHGFDYPDETGDQKLHARFWRPVMRNGFIRFDRPEDCPVRKFVRSMSVKPFGFGQNLQSADEAAAELEGLAEGHHHHHH	soluble
MSLERTTHQSLNGSWQFQPVAATLHVTPQLQAPAGGWKKINVPDNWYRQGHDISGYAWYQTRFALDAHNASRVAHLVFHGVDYSADVWLNDRYLGHHTGYFQPFEFDVTGLVKPGENQLRVLVNSPLEQPQDWSLHKRLVKGIFSHHDTRPGGAWSERGQEKNTGGIWAPVELQFADRAAVRQLQVTPRKQATEANPQQWVVSTEADIHHDVSHETSVTVEARILPENFKGASFAFKQSQTLQPGGNHIAFSFPVDNPALWWPYEYGHPNLYRLELSVKDASGKLLDQREQVFGVREVKVDDGLQWFINGRRMFLRGTNYIASQWLAEMTPDRYRRDLEMMQAAHINAVRVHAHVTGQDFYELCDRMGILVTQDFPLLWGYSDDPDFIAEARRQAKDMVQLLQRHPSIISWTMHNEPPWDSPWMAQKYPDYHPDINRRLDALLYEDVSKLDTLRVVRKESATKEHEWMGWYFDHWLAFSRPAPTPWSTEFGAQALPNLKSLERMFSKALLWPDTEAKWQVWEYHNFQRKETFEFAGVKQGGNIEEFIANSQHYQARLIQFAVENYRRQRYAPVSAVFQFMFVENWPSINWGIVDYWREPKAGYEALRVAYQPVLPSLEWKEGHHHHHH	not soluble
MDIRQLQFFVAIVRFGSFTKAAERLRVAQPAVSMAMKRLEEELDLVLFNRQERKVSLTAEGEIFLRHAEKILEEVASTETEMEELRGLAKGEVRVGIPPMMSAYFFPQIIRDFSNRYPELHLSVSGEGASKIQKMILDGELDMGVIAGASFPDTLELRRFLREEVIVCVPKNHHLAEMERLPLQEFARHPLIFYKEGYYLRELVFDVMRGAGLNPAIRFETNLYTLVKSLIRKGMGISVFLRMVVEEDDDLEAIPLDPPLYLDLQIAWKKYGYLSRANRAFVDFLLEQSARAHQPVGSCPARLVPAG	not soluble
MGHHHHHHSHMVKMEPENKYLPELMAEKDSLDPSFTHAMQLLTAEIEKIQKGDSKKDDEENYLDLFSHKNMKLKERVLIPVKQYPKFNFVGKILGPQGNTIKRLQEETGAKISVLGKGSMRDKAKEEELRKGGDPKYAHLNMDLHVFIEVFGPPCEAYALMAHAMEEVKKFLVPDMMDDICQEQFLELSYLNG	soluble
MAQWSTMSTADRDFVVRFPTGTSDPLSDAEIQQYREEIDRLDKEILAAVKRRTEISRAIGKTRMGSGGTRLVHTREVAIINQFREEIGEEGPALAGILLRMGRGRLGEAR	not soluble
KMKLYNFWRSGTSHRLRIALNLKGVPYEYLAVHLGKEEHLKDAFKALNPQQLVPALDTGAQVLIQSPAIIEWLEEQYPTPALLPADADGRQRVRALAAIVGCDIHPINNRRILEYLRKTFGADEAAINAWCGTWISAGFDAYEALLAVDPKRGRYSFGDTPTLADCYLVPQVESARRFQVDLTPYPLIRAVDAACGELDAFRRAAPAAQPDSA	soluble
MVSLTMVPIDALLSKEVNAFIVQHKHASVAELMLRMPVFTVDSRWIAAQIEGWQKASQKLPLWASTENIIYPIRLSMEQCSSERTAHYKSTLMSGERLVDLTGGFGVDSFYLSKSFNEVIYIEQQEDLAEIAAHNFSTLNQNNIVVKTADSDEYLKDIAEKIDVIFLDPARRKEMRKVYKLSDCEPNVVALQSFYFSKADVILIKTSPMLDITEATRQLTGIKEIHVVSVDNECKEVLYLLEKNYSGKATYICAHDYKKQLQLFSFTIAAEQAVTLSYSAPLAYLYEPNPSILKAGGFNSITQKYEVFKLHASSHLYTSASEVSDFPGRTFKIKETVGYSKKDIQAAVPGGKANIQTRNFPDSVEAIRKKTGLKDGGNIFIFATTLHDLSKVLLICEKI	not soluble
MSLDSSLFRKPSPRPLRQPTTPFHLQKTLILDLDETLIHSTSRPIHYPGGSSGGGGLLGLSVGGVFGSGRANEGHTVEVVVNGRSTMYHVYKRPYVDHFLKKVASWYTLVIFTASMPEYADPVIDWLDGGRNLFARKLYRENCHVQPNGSYIKDLTLVEKDLSRVCFMDNSPVSYSWNKGRLFSTWRSLEPDRMGTANALPIEGWTSDPNDEALLHSIPVLDSLRFVNDVRRVLGIRGAARARSEGHHHHHH	soluble
